The text below walks through data of paper PMC7713382, “Structural analysis and insight into effector binding of the niacin-responsive repressor NiaR from Bacillus halodurans” (Scientific Reports, 2020).

Data set [1] deals with T1, BhNiaR (Halalkalibacterium halodurans, UniProt Q9KDJ7).
T1 construct: gene BH1216; full length, 179 residues; E. coli BL21(DE3) star pLysS, pET-28b(+); N-terminal His-tag removed with PreScission protease; residues 7-179 modelled
T1 sequence (Q9KDJ7 1-179): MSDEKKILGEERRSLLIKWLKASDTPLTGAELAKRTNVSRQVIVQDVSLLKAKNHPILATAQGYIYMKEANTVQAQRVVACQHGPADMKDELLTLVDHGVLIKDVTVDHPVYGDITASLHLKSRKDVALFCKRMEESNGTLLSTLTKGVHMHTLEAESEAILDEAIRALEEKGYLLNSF
Description: X-ray crystal structure, co-crystallization, […] Å. It counts as binding. Conditions: 2 mM niacin, 0.1 M Tris-HCl pH 8.5, 15% PEG 6000; Zn2+ in site; C-terminal 3H domain, carboxyl coordinates zinc and H-bonds His83, Tyr112 of second subunit in pocket.

Data set [2] has as its target niacin-responsive repressor NiaR from Bacillus halodurans (Bacillus halodurans). Put plainly: SEC-MALS; Superdex-200 10/300 GL, 20 mM Tris-HCl pH 8.0, 200 mM NaCl, 1 mM DTT; 10-12 mg/ml, 0.1 ml injected, 0.5 ml/min. In general terms: SEC sorts molecules by how far they enter the pores of the column.
In data set [3] the target is T2, BhNiaR (Bacillus halodurans, UniProt Q9KDJ7 1-179).
T2 sequence: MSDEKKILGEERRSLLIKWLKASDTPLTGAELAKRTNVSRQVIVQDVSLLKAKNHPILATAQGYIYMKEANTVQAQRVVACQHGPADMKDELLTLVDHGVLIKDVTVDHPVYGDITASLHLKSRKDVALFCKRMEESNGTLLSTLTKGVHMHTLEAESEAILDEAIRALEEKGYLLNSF
Description: EMSA; 1 mM niacin; Zn2+-bound protein; EMSA: 20 mM Tris pH 8.0, 100 mM KCl, 1 mM MgCl2, 1 mM DTT, 5% glycerol, +/- 1 mM niacin; 80 nM DNA, 0-3 µM protein; 30 min at room temperature (Methods) or 277. Conditions: protein: recombinant; tags: N-terminal His-tag removed with PreScission protease; chain copies: 2; label: none (SYBR Green stain); blunt. On the technique in general: Mobility shift assays separate free from complexed probe on a gel.

One may read the stoichiometry N as a count of units in the complex or per binding partner. What is called Kd is a measure of binding affinity in units of concentration.

For the molecule `O=C(O)c1cccnc1` [niacin], the “X-ray crystal structure, co-crystallization, 1.8 Å” value on BhNiaR [1] is “A niacin molecule is bound to the C-terminal domain of BhNiaR near the metal-binding site”. As for “niacin-responsive repressor NiaR from Bacillus halodurans (natural protein)”, the stoichiometry N in data set [2] came to 2.

B1: nifS-nadB promoter 34-bp cognate DNA (type I) (dsDNA)
DNA 1: CTCATTTACATATGTCTTGACATCTATATTTACA
DNA 2: TGTAAATATAGATGTCAAGACATATGTAAATGAG
B1: the Kd in the data set with BhNiaR [3] was roughly 500 nM.
